In patent publication US20180230218A1 one finds percent induction of NCI-H441 cell growth (WST-8), normalised to 100 ng/mL HGF, % inhibition of HGF binding and in vitro cytotoxicity in MET-expressing MKN45 cells, EC50 data, which are given here for three substances.

Bounds are passed on as bounds.

Test [1] addresses human cMET (MET, c-Met, HGF receptor) on cells (human) (UniProt P08581). Kind of test: cell-based or functional assay.
Test [2] has the same target. Kind of test: flow cytometry, inhibition of HGF (50 ng/mL) binding to BxPC3 cells. In general terms: Flow cytometry measures light scatter and fluorescence of single cells or particles in a stream.
For test [3] the target is unchanged. Kind of test: flow cytometry, inhibition of HGF (50 ng/mL) binding to MKN45 cells.

human cMET (MET, c-Met, HGF receptor) on cells (human), sequence (P08581 25-1390): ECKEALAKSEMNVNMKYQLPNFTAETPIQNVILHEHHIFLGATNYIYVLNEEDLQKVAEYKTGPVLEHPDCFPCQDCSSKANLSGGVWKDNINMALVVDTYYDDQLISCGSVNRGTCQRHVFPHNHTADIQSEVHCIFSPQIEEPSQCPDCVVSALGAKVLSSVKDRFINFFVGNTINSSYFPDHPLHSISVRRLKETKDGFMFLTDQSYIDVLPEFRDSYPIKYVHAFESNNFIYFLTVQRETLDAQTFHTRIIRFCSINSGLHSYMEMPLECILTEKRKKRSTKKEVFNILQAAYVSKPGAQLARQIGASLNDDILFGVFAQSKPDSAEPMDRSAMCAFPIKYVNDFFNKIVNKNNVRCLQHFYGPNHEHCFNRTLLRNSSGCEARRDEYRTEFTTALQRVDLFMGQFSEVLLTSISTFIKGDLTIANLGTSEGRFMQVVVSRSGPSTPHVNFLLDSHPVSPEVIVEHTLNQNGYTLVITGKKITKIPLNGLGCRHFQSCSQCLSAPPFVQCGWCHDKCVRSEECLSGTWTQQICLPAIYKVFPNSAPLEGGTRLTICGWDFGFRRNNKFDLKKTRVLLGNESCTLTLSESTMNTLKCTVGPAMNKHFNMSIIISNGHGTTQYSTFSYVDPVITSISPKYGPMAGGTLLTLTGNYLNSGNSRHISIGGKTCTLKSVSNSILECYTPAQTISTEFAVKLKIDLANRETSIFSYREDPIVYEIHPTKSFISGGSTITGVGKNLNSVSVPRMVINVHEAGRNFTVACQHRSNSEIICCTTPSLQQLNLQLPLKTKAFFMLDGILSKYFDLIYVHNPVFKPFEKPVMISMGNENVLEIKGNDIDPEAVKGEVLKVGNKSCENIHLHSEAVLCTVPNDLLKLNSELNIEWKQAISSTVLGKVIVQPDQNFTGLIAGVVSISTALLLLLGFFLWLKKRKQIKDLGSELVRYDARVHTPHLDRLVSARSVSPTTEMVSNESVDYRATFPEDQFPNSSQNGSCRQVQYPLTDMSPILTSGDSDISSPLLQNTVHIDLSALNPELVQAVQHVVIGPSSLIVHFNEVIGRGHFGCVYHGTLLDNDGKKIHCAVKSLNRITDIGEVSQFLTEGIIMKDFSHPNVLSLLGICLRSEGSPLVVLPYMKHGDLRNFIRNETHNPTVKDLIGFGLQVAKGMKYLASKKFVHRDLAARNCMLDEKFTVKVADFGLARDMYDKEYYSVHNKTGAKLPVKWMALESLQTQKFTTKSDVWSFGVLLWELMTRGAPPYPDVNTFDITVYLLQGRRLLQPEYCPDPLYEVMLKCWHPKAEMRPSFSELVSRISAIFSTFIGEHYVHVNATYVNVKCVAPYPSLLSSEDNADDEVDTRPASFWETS

As for 5D5 (antibody), the percent induction of NCI-H441 cell growth (WST-8), normalised to 100 ng/mL HGF in test [1] was determined as 92%. For 224G11 (antibody), the % inhibition of HGF binding was determined as 50% in test [2] and 67% in test [3].

As for huIgG-SMCC-DM1 (antibody), the in vitro cytotoxicity in MET-expressing MKN45 cells, EC50 in test [1] is above 30 nM.
